The series concerns GST-YTHDF2 (human). The series can be described thus: EMSA. The following applies: one N6-methyladenosine.

The values that follow come from article PMC3658177.

pKd: −log10 of the molar value.

One may read the pKd as the Kd on a negative log10 scale, so that one unit is a factor of ten.

For the substance m6A-RNA, the pKd is 6.33.
